Results: patent US20040171105
Residue numbers refer to the chain shown, from its start.

How the values were obtained:
[1] = biological target: T1, GST fusion form of full-length Drosophila DIAP1, Q24306
T1 chain: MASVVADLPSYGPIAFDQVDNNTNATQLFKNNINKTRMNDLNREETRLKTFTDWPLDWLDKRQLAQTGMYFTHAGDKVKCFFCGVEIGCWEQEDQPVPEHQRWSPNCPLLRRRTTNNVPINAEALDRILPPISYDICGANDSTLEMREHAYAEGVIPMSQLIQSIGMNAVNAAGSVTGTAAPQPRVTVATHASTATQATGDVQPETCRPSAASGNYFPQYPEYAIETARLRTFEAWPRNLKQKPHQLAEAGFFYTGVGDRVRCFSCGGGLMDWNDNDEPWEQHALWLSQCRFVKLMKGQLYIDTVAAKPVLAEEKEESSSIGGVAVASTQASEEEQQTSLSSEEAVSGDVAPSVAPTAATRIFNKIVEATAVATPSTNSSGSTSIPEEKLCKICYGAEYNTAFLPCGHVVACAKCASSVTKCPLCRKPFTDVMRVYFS

[2] = biological target: T2, Livin α (human, N-terminal hexa-His tagged), Q96CA5
T2 chain: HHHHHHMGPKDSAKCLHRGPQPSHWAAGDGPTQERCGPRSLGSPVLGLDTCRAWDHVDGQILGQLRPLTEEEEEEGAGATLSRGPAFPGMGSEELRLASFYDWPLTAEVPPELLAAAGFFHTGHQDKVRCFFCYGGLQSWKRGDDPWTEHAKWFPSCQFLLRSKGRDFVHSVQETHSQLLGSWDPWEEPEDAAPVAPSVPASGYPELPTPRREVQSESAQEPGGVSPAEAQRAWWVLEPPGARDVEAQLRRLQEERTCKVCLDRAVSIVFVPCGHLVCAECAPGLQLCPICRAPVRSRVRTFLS

[3] = biological target: GST fusion form of full-length human cIAP2, Q13489
[4] = biological target: mutant cIAP1 (recombinant cIAP1 mutated at the three preferred Omi cleavage sites, GST fusion) [GST: P08515]
[5] = biological target: T3, Smac (purified recombinant), Q9NR28
T3 chain: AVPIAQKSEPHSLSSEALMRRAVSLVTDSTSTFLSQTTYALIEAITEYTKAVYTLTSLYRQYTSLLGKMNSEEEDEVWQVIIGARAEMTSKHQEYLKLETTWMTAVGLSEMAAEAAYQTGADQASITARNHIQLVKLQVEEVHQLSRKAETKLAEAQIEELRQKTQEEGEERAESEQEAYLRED

[6] = biological target: GST fusion form of full-length human XIAP, P98170
[7] = biological target: GST fusion form of full-length human cIAP1, Q13490
[8] = biological target: T4, Livin β (human, N-terminal hexa-His tagged), Q96CA5
T4 chain: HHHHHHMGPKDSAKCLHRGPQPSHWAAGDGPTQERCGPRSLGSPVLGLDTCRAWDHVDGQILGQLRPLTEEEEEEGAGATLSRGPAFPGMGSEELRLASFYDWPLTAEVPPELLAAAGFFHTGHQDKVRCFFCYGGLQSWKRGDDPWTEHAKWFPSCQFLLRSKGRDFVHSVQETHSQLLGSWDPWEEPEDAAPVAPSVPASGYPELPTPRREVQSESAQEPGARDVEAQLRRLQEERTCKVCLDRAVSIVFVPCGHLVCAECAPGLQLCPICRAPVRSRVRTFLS

GST fusion form of full-length human cIAP1, Q13490, sequence (Q13490 whole entry, the tested form may be a part): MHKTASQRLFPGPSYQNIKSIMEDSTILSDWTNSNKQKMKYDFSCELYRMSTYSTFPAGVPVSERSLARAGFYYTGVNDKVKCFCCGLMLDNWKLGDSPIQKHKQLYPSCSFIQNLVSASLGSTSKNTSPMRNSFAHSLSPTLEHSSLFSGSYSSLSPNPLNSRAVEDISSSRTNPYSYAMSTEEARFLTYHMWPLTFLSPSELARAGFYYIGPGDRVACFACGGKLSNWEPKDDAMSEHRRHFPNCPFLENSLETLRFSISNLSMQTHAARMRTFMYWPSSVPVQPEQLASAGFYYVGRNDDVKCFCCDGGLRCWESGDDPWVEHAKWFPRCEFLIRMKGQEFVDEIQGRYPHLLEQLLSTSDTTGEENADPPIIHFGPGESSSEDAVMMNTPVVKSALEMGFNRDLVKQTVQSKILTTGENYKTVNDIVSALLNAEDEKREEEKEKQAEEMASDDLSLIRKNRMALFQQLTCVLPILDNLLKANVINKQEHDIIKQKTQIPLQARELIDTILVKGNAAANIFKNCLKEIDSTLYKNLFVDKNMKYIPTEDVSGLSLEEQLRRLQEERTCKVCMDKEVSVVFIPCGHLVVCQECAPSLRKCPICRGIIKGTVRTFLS
GST fusion form of full-length human cIAP2, Q13489, sequence (Q13489 whole entry, the tested form may be a part): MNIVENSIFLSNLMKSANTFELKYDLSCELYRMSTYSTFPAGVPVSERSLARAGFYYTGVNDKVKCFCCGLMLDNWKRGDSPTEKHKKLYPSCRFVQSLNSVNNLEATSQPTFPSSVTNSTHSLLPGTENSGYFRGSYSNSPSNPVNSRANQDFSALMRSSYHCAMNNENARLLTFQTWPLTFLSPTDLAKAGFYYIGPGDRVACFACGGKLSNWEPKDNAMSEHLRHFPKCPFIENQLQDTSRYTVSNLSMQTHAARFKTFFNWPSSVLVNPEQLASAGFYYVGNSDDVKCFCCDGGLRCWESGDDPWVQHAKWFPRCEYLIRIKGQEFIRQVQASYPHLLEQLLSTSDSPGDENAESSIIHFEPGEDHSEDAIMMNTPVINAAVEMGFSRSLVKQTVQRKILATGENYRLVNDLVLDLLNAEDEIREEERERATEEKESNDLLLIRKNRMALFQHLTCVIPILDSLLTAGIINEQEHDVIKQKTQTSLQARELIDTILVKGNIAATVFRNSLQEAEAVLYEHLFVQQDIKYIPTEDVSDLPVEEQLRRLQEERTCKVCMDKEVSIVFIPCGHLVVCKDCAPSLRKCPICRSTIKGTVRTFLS
Survivin, O15392, sequence (O15392 whole entry, looked up): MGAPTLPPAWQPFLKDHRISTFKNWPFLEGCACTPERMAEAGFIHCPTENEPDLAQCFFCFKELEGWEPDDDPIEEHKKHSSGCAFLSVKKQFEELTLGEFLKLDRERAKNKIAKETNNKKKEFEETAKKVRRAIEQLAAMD
GST fusion form of full-length human XIAP, P98170, sequence (P98170 whole entry, the tested form may be a part): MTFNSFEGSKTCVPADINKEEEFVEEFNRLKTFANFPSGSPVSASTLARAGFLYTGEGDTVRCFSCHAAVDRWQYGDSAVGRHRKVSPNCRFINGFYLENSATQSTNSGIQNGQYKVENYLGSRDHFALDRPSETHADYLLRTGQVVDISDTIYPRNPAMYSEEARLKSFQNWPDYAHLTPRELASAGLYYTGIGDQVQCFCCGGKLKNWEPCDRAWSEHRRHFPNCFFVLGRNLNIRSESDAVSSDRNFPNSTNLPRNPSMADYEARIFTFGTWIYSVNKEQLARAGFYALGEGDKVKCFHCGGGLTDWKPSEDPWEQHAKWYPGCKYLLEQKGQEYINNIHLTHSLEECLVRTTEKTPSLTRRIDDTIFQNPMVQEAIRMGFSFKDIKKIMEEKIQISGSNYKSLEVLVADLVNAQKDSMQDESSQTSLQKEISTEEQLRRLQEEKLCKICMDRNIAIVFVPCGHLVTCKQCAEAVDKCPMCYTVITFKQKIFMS

B1: Omi WT (wild-type mature Omi/HtrA2, C-terminal hexa-His tagged, recombinant from E. coli) (protein)
chain: AVPSPPPASPRSQYNFIADVVEKTAPAVVYIEILDRHPFLGREVPISNGSGFVVAADGLIVTNAHVVADRRRVRVRLLSGDTYEAVVTAVDPVADIATLRIQTKEPLPTLPLGRSADVRQGEFVVAMGSPFALQNTITSGIVSSAQRPARDLGLPQTNVEYIQTDAAIDFGNSGGPLVNLDGEVIGVNTMKVTAGISFAIPSDRLREFLHRGEKKNSSSGISGSQRRYIGVMMLTLSPSILAELQLREPSFPDVQHGVLIHKVILGSPAHRAGLRPGDVILAIGEQMVQNAEDVYEAVRTQSQLAVQIRRGRETLTLYVTPEVTEHHHHHH
- cleavage of IAP in vitro [1]: As shown in FIG. 1A, Omi WT cleaved IAP proteins
- cleavage of Livin in vitro (Western blot, anti-Livin) [2]: Omi WT cleaved Livin α and Livin β
- cleavage of IAP in vitro [3]: the wild-type Omi cleaved various forms of IAP proteins, including cIAP1, cIAP2, XIAP, Livin α and Livin β
- cleavage in vitro (Western blot, anti-Survivin; 25 nM Survivin, 150 nM Omi WT) (Survivin, O15392): This cleavage activity, however, was absent for Survivin
- IAP cleavage and caspase reactivation in HeLa S100 extracts [4]: Omi at 75 or 10 nM resulted in similar amount IAP cleavage and caspase reactivation for mutant and wild-type cIAP1, respectively
- resistance to Omi protease against wild-type cIAP1 [4]: mutant cIAP1 is ˜7.5-fold more resistant to Omi protease
- proteolytic processing of Smac by Omi [5]: Smac, therefore, was not cleavable by Omi
- cleavage of IAP in vitro [6]: the wild-type Omi cleaved various forms of IAP proteins, including cIAP1, cIAP2, XIAP, Livin α and Livin β
- IAP cleavage and caspase reactivation in HeLa S100 extracts [7]: Omi at 75 or 10 nM resulted in similar amount IAP cleavage and caspase reactivation for mutant and wild-type cIAP1, respectively
- cleavage of cIAP1 in vitro (SDS-PAGE, silver staining) [7]: Wild-type Omi (Omi WT) protein at 2.5 nM (nano Molar) almost completely cleaved 50 nM cIAP1
- cleavage of Livin in vitro (Western blot, anti-Livin) [8]: Omi WT cleaved Livin α and Livin β

B2: Omi SA (protease dead mutant Omi S306→Ala, C-terminal hexa-His tagged) (protein)
chain: B1 chain with S173A
- cleavage of cIAP1 in vitro (Western blot, anti-GST) [7]: Omi WT cleaved the cIAP1, but the Omi SA did not

B3: OmiΔPDZ (Omi with the PDZ domain deleted, C-terminal hexa-His tagged) (protein)
chain: AVPSPPPASPRSQYNFIADVVEKTAPAVVYIEILDRHPFLGREVPISNGSGFVVAADGLIVTNAHVVADRRRVRVRLLSGDTYEAVVTAVDPVADIATLRIQTKEPLPTLPLGRSADVRQGEFVVAMGSPFALQNTITSGIVSSAQRPARDLGLPQTNVEYIQTDAAIDFGNSGGPLVNLDGEVIGVNTMKVTAGISFAIPSDRLREFLHRGEKKNSSSGISGSQHHHHHH
- cleavage of cIAP1 in vitro (SDS-PAGE, silver staining) [7]: The Omi?PDZ at 2.5 nM cleaved the full-length cIAP1 molecules into smaller fragments, whereas the Omi WT enzyme, at the same concentration, still left some uncleaved full-length cIAP1 molecules

B4: OmiΔ8 (Omi without the AVPS tetrapeptide, C-terminal hexa-His tagged) (protein)
chain: PPPASPRSQYNFIADVVEKTAPAVVYIEILDRHPFLGREVPISNGSGFVVAADGLIVTNAHVVADRRRVRVRLLSGDTYEAVVTAVDPVADIATLRIQTKEPLPTLPLGRSADVRQGEFVVAMGSPFALQNTITSGIVSSAQRPARDLGLPQTNVEYIQTDAAIDFGNSGGPLVNLDGEVIGVNTMKVTAGISFAIPSDRLREFLHRGEKKNSSSGISGSQRRYIGVMMLTLSPSILAELQLREPSFPDVQHGVLIHKVILGSPAHRAGLRPGDVILAIGEQMVQNAEDVYEAVRTQSQLAVQIRRGRETLTLYVTPEVTEHHHHHH
- cleavage of cIAP1 in vitro (SDS-PAGE, silver staining) [7]: A concentration (25 nM), 10-fold higher than the wild-type, was required to cleave IAP
- proteolytic efficiency against Omi WT [7]: The proteolytic efficiency of Omi?8 was, therefore, 10-fold lower than that of Omi WT regarding cIAP1 cleavage

B5: endogenous caspase-9 of HeLa S100 extract, activated by dATP and cytochrome c (protein)
chain: MDEADRRLLRRCRLRLVEELQVDQLWDALLSRELFRPHMIEDIQRAGSGSRRDQARQLIIDLETRGSQALPLFISCLEDTGQDMLASFLRTNRQAAKLSKPTLENLTPVVLRPEIRKPEVLRPETPRPVDIGSGGFGDVGALESLRGNADLAYILSMEPCGHCLIINNVNFCRESGLRTRTGSNIDCEKLRRRFSSLHFMVEVKGDLTAKKMVLALLELAQQDHGALDCCVVVILSHGCQASHLQFPGAVYGTDGCPVSVEKIVNIFNGTSCPSLGGKPKLFFIQACGGEQKDHGFEVASTSPEDESPGSNPEPDATPFQEGLRTFDQLDAISSLPTPSDIFVSYSTFPGFVSWRDPKSGSWYVETLDDIFEQWAHSEDLQSLLLRVANAVSVKGIYKQMPGCFNFLRKKLFFKTS
- caspase activity in HeLa extracts (cleavage of 35S-labeled procaspase-3) [7]: Caspase activity was completely inhibited by 250 nM of cIAP1
